Assay results: US20030166162A1

Target: thrombin
Test: cell-based or functional assay

GST (Glutathion-S-transferase) expressed from pGEX-4T-3, sequence (P08515 whole entry): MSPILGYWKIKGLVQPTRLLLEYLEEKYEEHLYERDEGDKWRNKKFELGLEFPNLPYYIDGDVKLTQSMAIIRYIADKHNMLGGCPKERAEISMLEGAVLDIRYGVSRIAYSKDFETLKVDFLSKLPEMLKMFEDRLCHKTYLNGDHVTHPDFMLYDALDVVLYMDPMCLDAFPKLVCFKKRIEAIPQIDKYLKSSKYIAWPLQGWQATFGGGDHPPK

“GST (Glutathion-S-transferase) expressed from pGEX-4T-3 (from UniProt P08515 1-218)” gave a thrombin activity, delta Abs (405 nm)/2 min, Test 1; sample A: supernatant + water (Abs (405 nm)/2 min) of 0.087, a thrombin activity, delta Abs (405 nm)/2 min, Test 1; sample B: pH 2.0 (Abs (405 nm)/2 min) of 0.082 and a thrombin activity, delta Abs (405 nm)/2 min, Test 1; sample C: pH 2.0 + 2 ug chymosin (Abs (405 nm)/2 min) of 0.063. For the same substance, the thrombin activity, delta Abs (405 nm)/2 min, Test 1; sample D: pH 4.5 (Abs (405 nm)/2 min) was 0.087, the thrombin activity, delta Abs (405 nm)/2 min, Test 1; sample E: pH 4.5 + 2 ug chymosin (Abs (405 nm)/2 min) was 0.087 and the thrombin activity, delta Abs (405 nm)/2 min, Test 2; sample A: supernatant + water (Abs (405 nm)/2 min) was 0.082. It also gave a thrombin activity, delta Abs (405 nm)/2 min, Test 2; sample B: pH 2.0 (Abs (405 nm)/2 min) of 0.073, a thrombin activity, delta Abs (405 nm)/2 min, Test 2; sample C: pH 2.0 + 2 ug chymosin (Abs (405 nm)/2 min) of 0.073 and a thrombin activity, delta Abs (405 nm)/2 min, Test 2; sample D: pH 4.5 (Abs (405 nm)/2 min) of 0.086. The thrombin activity, delta Abs (405 nm)/2 min, Test 2; sample E: pH 4.5 + 2 ug chymosin (Abs (405 nm)/2 min) was 0.087.
With “Hirudin 2 ug (positive control of Table 1)” the thrombin activity, delta Abs (405 nm)/2 min, Test 1; Hirudin 2 ug (Abs (405 nm)/2 min) was 0.0001 and the thrombin activity, delta Abs (405 nm)/2 min, Test 2; Hirudin 2 ug (Abs (405 nm)/2 min) was 0.0001.
For “hirudin released from GST-Pro-Hirudin by treatment at pH 4.5 with 2 ug chymosin (from UniProt P01050 1-65)”, the thrombin activity, delta Abs (405 nm)/2 min, Test 1; sample E: pH 4.5 + 2 ug chymosin (Abs (405 nm)/2 min) was 0.0002 and the thrombin activity, delta Abs (405 nm)/2 min, Test 2; sample E: pH 4.5 + 2 ug chymosin (Abs (405 nm)/2 min) was 0.0001.
Work on “cleavage product of GST-Pro-Hirudin treated at pH 2.0 with 2 ug chymosin” yielded a thrombin activity, delta Abs (405 nm)/2 min, Test 1; sample C: pH 2.0 + 2 ug chymosin (Abs (405 nm)/2 min) of 0.066 and a thrombin activity, delta Abs (405 nm)/2 min, Test 2; sample C: pH 2.0 + 2 ug chymosin (Abs (405 nm)/2 min) of 0.07.
